Measurements reported in paper PMC10063603, “Release of frustration drives corneal amyloid disaggregation by brain chaperone” (Communications Biology, 2023).
No end group written: not given here.

B1: human WT lipocalin-type prostaglandin D synthase (L-PGDS) (natural protein)
chain: APEAQVSVQPNFQQDKFLGRWFSAGLASNSSWLREKKAALSMCKSVVAPATDGGLNLTSTFLRKNQCETRTMLLQPAGSLGSYSYRSPHWGSTYSVSVVETDYDQYALLYSQGSKGPGEDFRMATLYSRTQTPRAELKEKFTAFCKAQGFTEDTIVFLPQTDKCMTEQ
notes: Lipocalin-type prostaglandin D synthase (L-PGDS), human, wild type; 15N-labelled for the solution NMR; loaded with heme for the cryo-EM micrographs; unlabelled for ssNMR and ThT assays; also called WT L-PGDS; source: E. coli Rosetta 2 DE3 (pNIC-CH vector), purified (Superdex 75 in PBS)
B2: TGFBIp G623R peptide (residues 611-633), recombinant, uniformly 13C,15N-labelled, as amyloid fibril (peptide)
peptide: EPVAEPDIMATNRVVHVITNVLQ
modifications: also: uniformly 13C,15N-labelled
notes: also called double-labeled G623R fibrils; 13C-15N labeled G623R fibril; source: E. coli BL21 (DE3), His-tag-BEAK-tag-TEV fusion, purified (Ni-NTA, TEV cleavage, reverse phase-HPLC); fibrils seeded with 5% (w/v) synthetic G623R seeds in 20 mM TRIS, 37 °C; not shown: His-tag, N-terminal, cleaved; BEAK tag, N-terminal, cleaved
B3: TGFBIp G623R peptide (residues 611-633 of the 4th FAS-1 domain), synthetic, as amyloid fibril (peptide)
peptide: EPVAEPDIMATNRVVHVITNVLQ
notes: Assayed as preformed amyloid fibril (many copies); also called G623R fibril; TGFBIp G623R fibril; source: synthetic peptide, bought: Synpeptide Co Ltd; fibrils formed in PBS at 37 °C, 180 rpm
B4: TGFBIp A620D peptide (residues 611-633), recombinant, uniformly 13C,15N-labelled, as amyloid fibril (peptide, UniProt Q15582 611-633, looked up)
peptide: EPVAEPDIMDTNGVVHVITNVLQ
modifications: also: uniformly 13C,15N-labelled
notes: also called A620D fibrils; source: E. coli BL21 (DE3), His-tag-BEAK-tag-TEV fusion, purified (Ni-NTA, TEV cleavage, reverse phase-HPLC); not shown: His-tag, N-terminal, cleaved; BEAK tag, N-terminal, cleaved

Experiments:
[1] = molecular target: B3; assay: cell-based or functional assay
[2] = molecular target: B3; assay: cryo-EM micrographs; L-PGDS-heme complex (heme as contrast enhancer) mixed with G623R fibrils at 1:10; stoichiometry counted from the images; details: both partners purified
[3] = molecular target: the molecule itself; assay: solid-state NMR; 13C,15N-labelled G623R fibrils packed in a 1.9 mm rotor; 18.8 T, MAS 17.857 kHz, 12 °C; NCA, NCO, DARR (20 and 75 ms), NCACX, NCOCX, CANCO; repeating unit calculated with CYANA
[4] = molecular target: B1; assay: solid-state NMR; unlabelled L-PGDS added to preformed 13C,15N-labelled G623R fibrils at 1:10; 1D 13C CP and 2D DARR (20 and 75 ms) compared with fibrils alone; details: both partners purified
[5] = molecular target: the molecule itself; assay: cryo-EM structure; G623R fibrils, Titan Krios 300 kV, helical reconstruction in RELION-3.1, map at 4.9 Å; model built with the ssNMR restraints
[6] = molecular target: B1; assay: NMR titration; 2D 1H-15N HSQC of 15N-labelled L-PGDS without and with G623R fibrils at a molar ratio of 1:4 (L-PGDS: fibrils), 600 MHz; details: both partners purified
[7] = molecular target: the molecule itself; assay: solid-state NMR; 13C,15N-labelled A620D fibrils in a 1.9 mm rotor; 600 MHz, MAS 13333 Hz, 12 °C; NCA spectrum

Binder: B1
- persistence length of G623R fibrils in cryo-EM micrographs without and with L-PGDS [1]: 4 fold
- reduction of ThT intensity of preformed G623R fibrils after 24 h with L-PGDS at molar ratios of 1:2, 1:5 and 1:10 (52%, 27%, 19%) [1]: 52%
- stoichiometry N [2]: 7 peptides per L-PGDS

Binder: B2
- binding result [3]: binds
- binding result [4]: binds

Binder: B3
- binding result [5]: binds
- binding result [6]: binds

Binder: B4
- binding result [7]: binds
